Earlier results in patent US20090074843A1, “Use of epi-hne 1-4” (priority 2004, published 2009).
Values belong to the molecule of their own block, whether it stands above or below them.

Legend:
[1] = chloramineT, up to 50 mol-equivalents
[2] = target: Human Plasma Factor Xa (Homo sapiens, UniProt P00742); details: Human Plasma Factor Xa vs Elastase
[3] = target: Thrombin (Homo sapiens, UniProt P00734); details: Human Serum Thrombin vs Elastase
[4] = test system: Human Pancreatic Chymotrypsin; details: Human Pancreatic Chymotrypsin vs Elastase
[5] = target: Human Serum Plasmin (Homo sapiens, UniProt P00747); details: Human Serum Plasmin vs Elastase
Human Serum Plasmin, sequence (P00747 581-810 limits assumed): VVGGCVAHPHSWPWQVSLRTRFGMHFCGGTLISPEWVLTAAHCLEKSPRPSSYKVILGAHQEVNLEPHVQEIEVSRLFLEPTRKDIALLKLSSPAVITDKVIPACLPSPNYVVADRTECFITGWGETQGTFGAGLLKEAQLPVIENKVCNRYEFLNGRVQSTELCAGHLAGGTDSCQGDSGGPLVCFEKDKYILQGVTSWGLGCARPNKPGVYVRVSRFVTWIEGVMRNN
Human Serum Plasmin, sequence (P00747 98-580 partner limits assumed): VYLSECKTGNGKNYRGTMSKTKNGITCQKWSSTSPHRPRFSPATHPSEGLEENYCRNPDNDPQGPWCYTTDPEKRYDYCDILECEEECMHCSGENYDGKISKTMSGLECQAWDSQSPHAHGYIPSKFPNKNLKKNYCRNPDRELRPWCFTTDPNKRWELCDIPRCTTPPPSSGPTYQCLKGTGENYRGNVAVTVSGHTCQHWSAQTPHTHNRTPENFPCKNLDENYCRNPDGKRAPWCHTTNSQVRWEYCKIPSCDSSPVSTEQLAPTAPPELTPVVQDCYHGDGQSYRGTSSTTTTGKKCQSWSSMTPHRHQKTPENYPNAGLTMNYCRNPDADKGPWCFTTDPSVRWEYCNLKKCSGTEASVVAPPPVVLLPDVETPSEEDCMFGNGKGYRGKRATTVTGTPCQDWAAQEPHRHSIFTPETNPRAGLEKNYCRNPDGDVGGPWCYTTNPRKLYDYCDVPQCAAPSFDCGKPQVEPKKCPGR

[6] = target: Kallikrein (Homo sapiens, UniProt P03952); details: Human Serum Kallikrein vs Elastase
Kallikrein, sequence (P03952 391-638 limits assumed): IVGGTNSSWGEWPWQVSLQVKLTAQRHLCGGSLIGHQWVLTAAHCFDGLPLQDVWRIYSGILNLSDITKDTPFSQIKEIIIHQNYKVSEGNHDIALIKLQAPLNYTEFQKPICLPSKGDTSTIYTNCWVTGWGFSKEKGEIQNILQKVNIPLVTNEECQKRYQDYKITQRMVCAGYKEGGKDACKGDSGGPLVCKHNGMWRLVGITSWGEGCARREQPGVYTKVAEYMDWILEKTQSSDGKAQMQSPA
Kallikrein, sequence (P03952 20-390 limits assumed): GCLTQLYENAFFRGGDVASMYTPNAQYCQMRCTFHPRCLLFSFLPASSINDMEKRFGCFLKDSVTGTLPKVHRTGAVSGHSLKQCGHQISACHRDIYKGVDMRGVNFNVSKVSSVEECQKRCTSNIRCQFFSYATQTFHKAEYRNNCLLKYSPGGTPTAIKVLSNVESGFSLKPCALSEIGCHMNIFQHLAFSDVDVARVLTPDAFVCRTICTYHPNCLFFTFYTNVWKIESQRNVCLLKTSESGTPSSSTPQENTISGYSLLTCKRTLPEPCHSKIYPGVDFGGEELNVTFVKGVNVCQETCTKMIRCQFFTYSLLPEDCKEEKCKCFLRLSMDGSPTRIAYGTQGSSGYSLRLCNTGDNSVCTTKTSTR

[7] = target: Human Urine Urokinase (Homo sapiens, UniProt P00749); details: Human Urine Urokinase vs Elastase
[8] = target: T1, human neutrophil elastase (Homo sapiens, UniProt P08246); details: comparison values
T1 sequence (P08246 30-267): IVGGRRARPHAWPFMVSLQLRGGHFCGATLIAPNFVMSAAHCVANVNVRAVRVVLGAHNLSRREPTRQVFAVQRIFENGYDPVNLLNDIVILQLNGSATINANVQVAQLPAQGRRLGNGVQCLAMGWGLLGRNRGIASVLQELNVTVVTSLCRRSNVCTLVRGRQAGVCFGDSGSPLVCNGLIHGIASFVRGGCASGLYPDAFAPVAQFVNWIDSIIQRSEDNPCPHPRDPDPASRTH

Human Plasma Factor Xa, sequence (P00742 235-488 limits assumed): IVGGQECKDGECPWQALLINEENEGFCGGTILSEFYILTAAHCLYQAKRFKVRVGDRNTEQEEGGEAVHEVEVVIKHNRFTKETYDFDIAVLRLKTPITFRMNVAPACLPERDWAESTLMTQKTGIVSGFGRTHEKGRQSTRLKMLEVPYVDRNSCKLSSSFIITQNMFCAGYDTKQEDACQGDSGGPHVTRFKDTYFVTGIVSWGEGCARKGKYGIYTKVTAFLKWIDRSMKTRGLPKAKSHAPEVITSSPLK
Human Plasma Factor Xa, sequence (P00742 41-179 partner limits assumed): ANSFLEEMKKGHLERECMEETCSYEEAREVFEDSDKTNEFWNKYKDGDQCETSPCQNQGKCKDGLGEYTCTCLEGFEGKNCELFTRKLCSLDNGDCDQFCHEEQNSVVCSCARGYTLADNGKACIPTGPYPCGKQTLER

Molecule: AAT: naturally occurring elastase inhibitor, serum protease inhibitor [reference compound]
resistance to oxidation (retention of activity) [1]: destroy the activity

selectivity in Ki values [2]: more than 10^6 | selectivity in Ki values [3]: more than 10^6 | selectivity in Ki values [4]: more than 10^6 | selectivity in Ki values [5]: more than 10^6 | selectivity in Ki values [6]: more than 10^6 | selectivity in Ki values [7]: more than 10^6
Molecule: EPI-HNE4: 56 amino acid protein (SEQ ID NO: 1) derived from second Kunitz type domain of human inter-alpha-inhibitor light chain (ITI-D2); elastase inhibitor (EACNLPIVRGPCIAFFPRWAFDAVKGKCVLFPYGGCQGNGNKFYSEKECREYCGVP; P. pastoris; EPI-HNE4 N-terminal modified to facilitate secretion)

Kd [8]: 100 nM
B1: SLPI: naturally occurring elastase inhibitor, serum protease inhibitor (protein, UniProt P03973 26-132, looked up)
Antileukoproteinase: SGKSFKAGVCPPKKSAQCLRYKKPECQSDWQCPGKKRCCPDTCGIKCLDPVDTPNPTRRKPGKCPVTYGQCLMLNPPNFCEMDGQCKRDLKCCMGMCGKSCVSPVKA
resistance to oxidation (retention of activity) [1]: destroy the activity
